Patent US10047341B2, “Generation of keratinocytes from pluripotent stem cells and maintenance of keratinocyte cultures” (FUJIFILM Cellular Dynamics, Inc., priority 2014, dated 2018)

B1: FGF7: fibroblast growth factor FGF7 (protein, UniProt P21781 32-194, looked up)
Fibroblast growth factor 7: CNDMTPEQMATNVNCSSPERHTRSYDYMEGGDIRVRRLFCRTQWYLRIDKRGKVKGTQEMKNNYNIMEIRTVAVGIVAIKGVESEFYLAMNKEGKLYAKKECNEDCNFKELILENHYNTYASAKWTHNGGEMFVALNQKGIPVRGKKTKKEQKTAHFLPMAIT
B2: BMP4: growth factor BMP4, neuronal fate suppressor, medium supplement (protein, UniProt P12644 293-408, looked up)
Bone morphogenetic protein 4: SPKHHSQRARKKNKNCRRHSLYVDFSDVGWNDWIVAPPGYQAFYCHGDCPFPLADHLNSTNHAIVQTLVNSVNSSIPKACCVPTELSAISMLYLDEYDKVVLKNYQEMVVEGCGCR

Columns and labels:
[1] = test system: human ESC/iPSCs; assay: iKCs derivation from human ESC/iPSCs: critical medium components; type: cell-based; conditions: Passage 0, Day 14 differentiation culture, anti-K14 immunofluorescence
[2] = test system: primary human keratinocytes; assay: Long-term culture of primary keratinocytes (population doubling); conditions: niacinamide 3 mM, BMP4 0.5 ng/mL as components of KCM4
Method: Keratinocytes were maintained in the indicated medium and passaged every 4-5 days (at ˜80% confluence). For passage, keratinocytes were incubated with a 0.1% Trypsin in Versene solution at 37° C. for 5 minutes. The trypsin was neutralized with 0.5 mg/mL of trypsin inhibitor. The cells were centrifuged at 1200 rpm for 4 min. Cells were counted with a Cellometer (Nexcelom). Cells (25,000-50,000) were plated per well of 6-well plates in the indicated keratinocyte culture media. Media was changed every other day.
Cells were maintained by serial passage at ˜80% confluence until senescence. The total number of cell doublings for each passage was calculated using the following formula: 3.32 log(N/No). Where No refers to the number of cells plated at the beginning of each passage and N is the number of cells recovered at the end of each passage.

Row | Molecule | K14 expression with different fibroblast growth factors [1] | life span and stemness of primary keratinocytes in culture [2] | life span and stemness of primary keratinocytes in culture ([2]; listed as BMP-4)
1 | B1 | did not promote homogeneous K14 expression | – | –
2 | B2 | – | maintained the stemness of primary keratinocyte stem cells in culture | extend the life span of primary keratinocytes in culture
